IC50 (log10 M (log[SR4995])) data for 4 variants are collected here from article PMC5314347.

B1: ABHD5-luciferase(N) (alpha-beta hydrolase domain-containing 5, wild type) [mouse] / PLIN1-luciferase(C) (perilipin 1) [not stated] (parent)
chain 1: MKAMAAEEEVDSADAGGGSGWLTGWLPTWCPTSTSHLKEAEEKMLKCVPCTYKKEPVRISNGNRIWTLMFSHNISSKTPLVLLHGFGGGLGLWALNFEDLSTDRPVYAFDLLGFGRSSRPRFDSDAEEVENQFVESIEEWRCALRLDKMILLGHNLGGFLAAAYSLKYPSRVSHLILVEPWGFPERPDLADQERPIPVWIRALGAALTPFNPLAGLRIAGPFGLSLVQRLRPDFKRKYSSMFEDDTVTEYIYHCNVQTPSGETAFKNMTIPYGWAKRPMLQRIGGLHPDIPVSVIFGARSCIDGNSGTSIQSLRPKSYVKTIAILGAGHYVYADQPEEFNQKVKEICHTVD
chain 2: MSMNKGPTLLDGDLPEQENVLQRVLQLPVVSGTCECFQKTYNSTKEAHPLVASVCNAYEKGVQGASNLAAWSMEPVVRRLSTQFTAANELACRGLDHLEEKIPALQYPPEKIASELKGTISTRLRSARNSISVPIASTSDKVLGATLAGCELALGMAKETAEYAANTRVGRLASGGADLALGSIEKVVEFLLPPDKESAPSSGRQRTQKAPKAKPSLVRRVSTLANTLSRHTMQTTAWALKQGHSLAMWIPGVAPLSSLAQWGASAAMQVVSRRQSEVRVPWLHNLAASQDESHDDQTDTEGEETDDEEEEEESEAEENVLREVTALPNPRGLLGGVVHTVQNTLRNTISAVTWAPAAVLGTVGRILHLTPAQAVSSTKGRAMSLSDALKGVTDNVVDTVVHYVPLPRLSLMEPESEFRDIDNPSAEAERKGSGARPASPESTPRPGQPRGSLRSVRGLSAPSCPGLDDKTEASARPGFLAMPREKPARRVSDSFFRPSVMEPILGRAQYSQLRKKS
B2: ABHD5-luciferase(N) (alpha-beta hydrolase domain-containing 5, wild type) [mouse] / PLIN5-luciferase(C) (perilipin 5) [mouse] (parent)
chain 1: B1 chain 1
chain 2: MDQRGEDTTLAPHSRMSGDQTAQDPGSSLGELDQQNVVNRVVALPLVKATCTAVSSAYNSAKDRHPLLGSACRLAEHCVCSVTTCALDHAQPLLEHLQPQLATVNDLACRGLDKLEEKLPFLQQPSDMVVTSAKDTVAKSVTGMVDLAQRGRRWSGELRRSMSQAMDMVLGKSEKLVDRFLPMTEAELAVLAAEAEGPEVGTVEEQRQQQGYFVRLGSLSARLRHLAYEHSLGKLRQSKHRTQEMLAQLQETLELIQHMQRGASPSPTFHPPKTQELWGSWSPCLENGRSHSEVELETLALSRSLTLELQNAVDALAGCVRGLPPSAQAKVAEVQRSVDALQATFADAHCLGDVAPTALAEGRGSVARAHACVDEFLDLVLRAMPLPWLVGPFAPILVEQSEPLINLATCVDEVVGDPDPRWAHMDWPAQKRAWEAESADPGGQEAEPPRGQGKHTMMPELDF

Variants of B1 are the subject of the first assay. In words: luciferase protein complementation analysis, SR4995 dose-response. The following applies: with PLIN1-luciferase(C) (perilipin 1); SR4995 titrated from 1e-8.5 to 1e-4 M; mean ± SD; read off a plot.
As for chain 1 R299N, the IC50 (log10 M (log[SR4995])) was -6.7.
On the same count and under the same terms, then chain 1 G328S, with -6.8.

A further assay covers variants of B2. The description is as above. The following applies: with PLIN5-luciferase(C) (perilipin 5) [mouse]; SR4995 titrated from 1e-8.5 to 1e-4 M; mean ± SD; read off a plot.
For the variant chain 1 G328S, the IC50 (log10 M (log[SR4995])) is -7.2.
As to chain 1 R299N, the IC50 (log10 M (log[SR4995])) is -6.5.
